According to patent US20230374116A1 (ROSALIND FRANKLIN INSTITUTE, published 2023):

Experiments:
Test in all cases: cell-based or functional assay
[1] = target: Spike protein on live SARS-CoV-2 Alpha strain (SARS-CoV-2 Alpha (B.1.1.7), UniProt P0DTC2 14-1273)
[2] = target: Spike protein on live SARS-CoV-2 Beta strain (SARS-CoV-2 Beta (B.1.351), UniProt P0DTC2 14-1273)
[3] = target: Spike protein on live SARS-CoV-2 Delta strain (SARS-CoV-2 Delta (B.1.617.2), UniProt P0DTC2 14-1273)

Row | Binder | ND 50 MN assay, live virus [1] | ND 50 MN assay, live virus [2] | ND 50 MN assay, live virus [3]
1 | C1 trimer (VHH) QVQLVESGGGLVQPGGSLRLSCAASGFTNDFYSIAWFRQAPGKEREGVSWLSVSDNTPTYVDSVKDRFTISRHNANNTVYLQMNMLKPEDTAIYYCAAGRFAGRDTWPSSYDYWGQGTQVTVSSGSGSGSQVQLVESGGGLVQPGGSLRLSCAASGFTNDFYSIAWFRQAPGKEREGVSWLSVSDNTPTYVDSVKDRFTISRHNANNTVYLQMNMLKPEDTAIYYCAAGRFAGRDTWPSSYDYWGQGTQVTVSSGSGSGSQVQLVESGGGLVQPGGSLRLSCAASGFTNDFYSIAWFRQAPGKEREGVSWLSVSDNTPTYVDSVKDRFTISRHNANNTVYLQMNMLKPEDTAIYYCAAGRFAGRDTWPSSYDYWGQGTQVTVSS | 8.2 nM | 4.5 nM | 3.1 nM
2 | H3 trimer (VHH) QVQLVESGGGLVKTGGSLRLSCAASGRTFSTYSMGWFRQAPGKEREFVAGMRWTGSSTFYSDSVKGRFTVSRNNAKDTVYLHMNSLKPEDTAVYYCAITTIVRAYYTEYTEADFGSWGQGTQVTVSSGAVLAPQVQLVESGGGLVKTGGSLRLSCAASGRTFSTYSMGWFRQAPGKEREFVAGMRWTGSSTFYSDSVKGRFTVSRNNAKDTVYLHMNSLKPEDTAVYYCAITTIVRAYYTEYTEADFGSWGQGTQVTVSSGSGSGSQVQLVESGGGLVKTGGSLRLSCAASGRTFSTYSMGWFRQAPGKEREFVAGMRWTGSSTFYSDSVKGRFTVSRNNAKDTVYLHMNSLKPEDTAVYYCAITTIVRAYYTEYTEADFGSWGQGTQVTVSS | 0.6 nM | – | 0.3 nM
3 | A8 trimer (bispecific antibody) QVQLVESGGGLVQAGGSLRLSCAASGGTFSTAAMGWFRQAPGEERECVASIGWRGVRTWYADSVKGRFTISRDNPQNTVYLQMNNLKSGDTAVYYCAASVGNYGLPWAHFEYDFWGQGIQVTVSSGSGSGSQVQLVESGGGLVQAGGSLRLSCAASGGTFSTAAMGWFRQAPGEERECVASIGWRGVRTWYADSVKGRFTISRDNPQNTVYLQMNNLKSGDTAVYYCAASVGNYGLPWAHFEYDFWGQGIQVTVSSGSGSGSQVQLVESGGGLVQAGGSLRLSCAASGGTFSTAAMGWFRQAPGEERECVASIGWRGVRTWYADSVKGRFTISRDNPQNTVYLQMNNLKSGDTAVYYCAASVGNYGLPWAHFEYDFWGQGTQVTVSSKHHHHHH | 0.1 nM | 0.2 nM | 0.1 nM
4 | C5 trimer (VHH, also called trimeric C5 nanobody; C5-6GS-C5-6GS-C5) QVQLVESGGGSVQAGGSLTLSCVASGVTLGRHAIGWFRQAPGKERERVSCIRTFDGITSYVESTKGRFTISSNNAMNTVYLQMNSLKPEDTAVYFCALGVTAACSDNPYFWGQGTQVTVSSGSGSGSQVQLVESGGGSVQAGGSLTLSCVASGVTLGRHAIGWFRQAPGKERERVSCIRTFDGITSYVESTKGRFTISSNNAMNTVYLQMNSLKPEDTAVYFCALGVTAACSDNPYFWGQGTQVTVSSGSGSGSQVQLVESGGGSVQAGGSLTLSCVASGVTLGRHAIGWFRQAPGKERERVSCIRTFDGITSYVESTKGRFTISSNNAMNTVYLQMNSLKPEDTAVYFCALGVTAACSDNPYFWGQGTQVTVSS | 0.25 nM | – | 0.02 nM
